# Measurements from paper PMC6711944, “Structural insights into the species preference of the influenza B virus NS1 protein in ISG15 binding” (Protein & Cell, 2018).
# How the values were obtained:
# [1] = biological target: T1, hISG15-L10A (human, UniProt P05161 1-157, L10A); experiment: ITC; isothermal titration calorimetry of NS1B-NTR and ISG15 proteins; which was titrated and the conditions are not told in the text shown; details: both partners purified
# T1 construct: Mutant of m2
# [2] = biological target: T2, bovine ISG15 (bovine, UniProt O02741 1-154); experiment: as above; details: both partners purified
# T2 construct: also called bISG15
# [3] = biological target: T3, hISG15 with the first two linker residues (Asp76, Lys77) converted to alanine (human, UniProt P05161 1-157, Asp76 to alanine | Lys77 to alanine); experiment: as above; details: both partners purified
# T3 construct: also called the mutated hISG15
# [4] = biological target: T4, murine ISG15 (murine, UniProt Q64339 1-155); experiment: as above; details: both partners purified
# T4 construct: also called mISG15
# [5] = biological target: T5, human ISG15 (human, UniProt P05161 1-157); experiment: as above; details: both partners purified
# T5 construct: also called hISG15
# [6] = biological target: T6, canine ISG15 (canine, UniProt A0A8I3P342 1-174); experiment: as above; details: both partners purified
# T6 construct: also called cISG15
# [7] = biological target: the molecule itself; experiment: crystal structure; crystal structures of NS1B-NTR in complex with mISG15, cISG15 or bISG15
# [8] = biological target: T7, NS1B-NTR (1-103), N-terminal region of the influenza B virus NS1 protein (influenza B virus, UniProt P03502 1-103); experiment: ITC; about 0.5 mM ISG15 injected into 250 ul of 0.05 mM NS1B-NTR in the cell, 20 aliquots of 2 ul; 25 °C; 10 mM HEPES-sodium, 500 mM NaCl, pH 7.2; MicroCal iTC200; 'one set of sites' fitting model; details: both partners purified
# T7 construct: not shown: GST, N-terminal, cleaved
# T7 sequence: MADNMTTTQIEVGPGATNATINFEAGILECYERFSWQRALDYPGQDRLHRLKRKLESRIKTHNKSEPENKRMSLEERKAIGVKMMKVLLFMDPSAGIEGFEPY
# T5 sequence (P05161 1-157): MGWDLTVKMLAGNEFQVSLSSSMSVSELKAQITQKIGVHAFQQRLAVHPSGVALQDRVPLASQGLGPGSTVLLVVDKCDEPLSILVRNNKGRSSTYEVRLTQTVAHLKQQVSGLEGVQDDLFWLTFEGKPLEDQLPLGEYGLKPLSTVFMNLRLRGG
# T6 sequence (A0A8I3P342 entry or part of it): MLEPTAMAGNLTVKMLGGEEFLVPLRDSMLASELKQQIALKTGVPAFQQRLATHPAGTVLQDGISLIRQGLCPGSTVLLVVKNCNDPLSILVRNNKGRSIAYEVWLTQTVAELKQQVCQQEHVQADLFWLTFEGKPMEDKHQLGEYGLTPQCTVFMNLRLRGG
# T3 sequence (P05161 other isoform, or with tags, fused parts or gaps with the stated changes): as the sequence (P05161 1-157) above, with D76A, K77A counted along it
# T1 sequence (P05161 1-157 L10A): as the sequence (P05161 1-157) above, with L10A counted along it
binder,measurement,setting,value
"NS1B-NTR, containing the 103 N-terminal residues of NS1B (influenza B virus NS1 protein) (domain or fragment, the same region as in the cited hISG15/NS1B-NTR structure PDB 3RT3) MADNMTTTQIEVGPGATNATINFEAGILECYERFSWQRALDYPGQDRLHRLKRKLESRIKTHNKSEPENKRMSLEERKAIGVKMMKVLLFMDPSAGIEGFEPY",Kd,[1],17 µM
same,Kd,[2],12 µM
same,stoichiometry N,[2],1
same,Kd,[3],5 µM
same,Kd,[4],13 µM
same,stoichiometry N,[4],1
same,Kd,[5],0.28 µM
same,stoichiometry N,[5],1
same,Kd,[6],34 µM
same,stoichiometry N,[6],1
same,stoichiometry N,[7],2
"bISG15-Q76A-N77A (natural protein, not shown: GST, N-terminal, cleaved) MGGDLTVKMLGGQEILVPLRDSMTVSELKQFIAQKINVPAFQQRLAHLDSREVLQEGVPLVLQGLRAGSTVLLVVAASISILVRNDKGRSSPYEVQLKQTVAELKQQVCQKERVQADQFWLSFEGRPMDDEHPLEEYGLMKGCTVFMNLRLRGG",Kd,[8],10 µM
"mISG15-Q74A-N75A (natural protein, not shown: GST, N-terminal, cleaved) MAWDLKVKMLGGNDFLVSVTNSMTVSELKKQIAQKIGVPAFQQRLAHQTAVLQDGLTLSSLGLGPSSTVMLVVAASSEPLSILVRNERGHSNIYEVFLTQTVDTLKKKVSQREQVHEDQFWLSFEGRPMEDKELLGEYGLKPQCTVIKHLRLRGG",Kd,[8],6 µM
